Reference: patent publication US5917018

Target: natural class I heavy chain molecules
Assay: binding to class I heavy chain, method not given

## recombinant murine β2-microglobulin
  affinity against that of human β2-microglobulin: 5 times lower
